The subject of the data set is MS2 coat protein. The data set is described as follows: apparent KD of MS2 coat protein; designed switch direction (-1 OFF switch, 1 ON switch): -1; higher = weaker reporter binding. The procedure, abridged:
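Three titration conditions were used: no input, 200 uM small-molecule ligand, and an oligonucleotide input. In each, SNAP-549-labelled MS2 coat protein was raised from 0.7 or 1.5 nM, doubling, to 3 µM over designed RNA switches transcribed on Illumina chips by stalled E. coli RNA polymerase. Curve fits of normalised cluster fluorescence gave values whose per-design median over clusters is the apparent KD.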

Setting [1] is: input ligand: microRNA oligo, concentration not stated.
Setting [2] is: Eterna round: R95, input ligand: microRNA oligo, concentration not stated.
Where [3] appears, read: Eterna round: R95, input ligand: FMN 200 uM.
The mark [4] stands for this setting: Eterna round: R95, input ligand: none.

With “CAGUACUGAGGAUAUACAUGAGGAUCACCCAUGUGUUCCGGCUAGGAAACUAGCAAAGGUAGAAGGCAGUACUG [Salish 065 m11] (Eterna round: R97, puzzle: Exclusion 3)”, the “apparent KD of MS2 coat protein” value worked out at 823 nM (input ligand: FMN 200 uM) and 43.7 nM (input ligand: none).

Turning to “CAACAUGAGGAUCACCCAUGUGGCCCUACGUGCUGGCUCGGGCAGGAUAUUAACCAAUGAGUAGUUAAGAAGGGCUCGCAAGUA [Eternabot solution 14] (Eterna round: R96, puzzle: Exclusion NG 3)”, the “apparent KD of MS2 coat protein” value runs as follows: (input ligand: FMN 200 uM) 223 nM; under setting [1], 40.6 nM; (input ligand: none) 76.6 nM.

As to “UUAGUUGGAGGAUAUACGCCGUUUGACAUGAGGAUCACCCAUGUAGAGGCUUAUGUCAAUGUAGAAGGCCGUUUGG [Eternabot (L2) Solution 12] (Eterna round: R97, puzzle: Exclusion 5)”, the “apparent KD of MS2 coat protein” value by setting is: (input ligand: FMN 200 uM) 26.3 nM; (input ligand: none) 18.7 nM.

Regarding “AUGGACGCAGGAUAUACAUGAGGAUCACCCAUGUUAGGGUUGUGAGUAGGAAGGGAAGGUAGAAGGGCGAGAGU [JR_Exclu3_Sub099] (puzzle: Exclusion 3)”, the “apparent KD of MS2 coat protein” value under setting [2] amounted to 86.9 nM.

For the sequence “GCCGAUUAAGUGAGGAUAUACCUAUGGAUACAUAGGUAGAAGGCACAUGAGGAUCACCCAUGUAUCCUAUCGGC [Eli bmx4 4.27] (Eterna round: R97, puzzle: Brourd's mod of Exclusion 4)”, the “apparent KD of MS2 coat protein” value amounted to 517 nM (input ligand: FMN 200 uM) and 59.8 nM (input ligand: none).

“AAAAGAUAAGGAUAUUGAAGGUUCGACAUGAGGAUCACCCAUGUUAUGUUGGAAAAGGGACAAGAAGGUAUGAAAG [salish99_ex5_r4_203] (Eterna round: R97, puzzle: Exclusion 5)”: the “apparent KD of MS2 coat protein” value is 31.5 nM (input ligand: FMN 200 uM) and 41.8 nM (input ligand: none).

“AGUCGUAGACAGGAUAUGCGGCUAAUAAAUAAAGCAGAAGGGUCUACUUGAGGAUCACCCAAGUGGGCGGUCUG [jl-ex6-4.22 ViennaUCT mod] (Eterna round: R97, puzzle: Exclusion 6)”: the “apparent KD of MS2 coat protein” value by setting is: (input ligand: FMN 200 uM) 64.9 nM; (input ligand: none) 16.9 nM.

As to “AACCUAAUGCGAGGAUAUACUGAGACGUACAGUCGUCAGACAUGAGGAUCACCCAUGUACGCCUCGUAGAAGGCGCGUGACUAA [Bearareus] (Eterna round: R96, puzzle: Exclusion NG 2)”, the “apparent KD of MS2 coat protein” value is, setting by setting: (input ligand: FMN 200 uM) 32.6 nM; under setting [1], 13.4 nM; (input ligand: none) 16.8 nM.

Take “AGAUGCUCAAGUCGACAUGAGGAUCACCCAUGUACAGUUAACGAGGAUAUCCGAGAUAAAUAAUAGGAGAAGGCGUGAUCAUGA [Ex NG3 #3] (Eterna round: R96, puzzle: Exclusion NG 3)”: the “apparent KD of MS2 coat protein” value was determined as 154 nM (input ligand: FMN 200 uM), 78.2 nM under setting [1] and 123 nM (input ligand: none).

In the case of “GUUUCACAUGAGGAUCACCCAUGUGAGGAUAUCCAUUUGUUAACCGUAGUUAAUAGAUGGAGAAGGCGCGUGAU [JRxlusion 6 - Jieux - Exclusion 1] (Eterna round: R97, puzzle: Exclusion 1)”, the “apparent KD of MS2 coat protein” value is, setting by setting: (input ligand: FMN 200 uM) 66.6 nM; (input ligand: none) 62.9 nM.

On to “GCAGCUGCUCUAGGAUAUAUUUUAGCACAUGAGGAUCACCCAUGUGGGACCACAACAGCGCAAGAAUAGAAGGAGACAGCAGUA [Eternabot solution 32] (Eterna round: R96, puzzle: Exclusion NG 2)”, for which the “apparent KD of MS2 coat protein” value is, setting by setting: (input ligand: FMN 200 uM) 506 nM; under setting [1], 125 nM; (input ligand: none) 129 nM.

Regarding “AGAAAUGCCCAUGGCCGCAAGCCUUUUGCUUGUCUUACCACAUGAGGAUCACCCAUGUGACAUGGGCUCCUGAUAAU [Zace] (puzzle: Sensor v3, turn-off variant 2)”, the “apparent KD of MS2 coat protein” value reads like this: under setting [3], 12.6 nM; under setting [2], 10.4 nM; under setting [4], 11 nM.

For “UAUAUAUAGUAAGGAUAUGUAUUAAUUAUAUAAACAGAAGGUACUGACAUGAGGAUCACCCAUGUUUUAGUGUGGGCAUGUAGA [JMF's solution 80] (Eterna round: R96, puzzle: Exclusion NG 1)”, the “apparent KD of MS2 coat protein” value under setting [1] was determined as 65.8 nM.

As to “GAAAAUUGAGGAUAUCCAAAAGGCCACAUGAGGAUCACCCAUGUGUAUCCUCGGCCCAAAGGAGAAGGCAAGAUAA [EX5 A.23] (Eterna round: R97, puzzle: Exclusion 5)”, the “apparent KD of MS2 coat protein” value by setting is: (input ligand: FMN 200 uM) 974 nM; (input ligand: none) 5080 nM.

As for “GGAAUGUAAGGAUAUCCGAAAGGAAGGAGAGGGAGAGGGAAGGAGAAGGUACAUGAGGAUCACCCAUGUAAGGG [AK-MS2ROC-r4-exclusion4-9] (Eterna round: R97, puzzle: Exclusion 4)”, the “apparent KD of MS2 coat protein” value (input ligand: FMN 200 uM) turned out to be 88.5 nM and the “apparent KD of MS2 coat protein” value (input ligand: none) was found to be 69.2 nM.

With “AUAUAGAUAGUCAGGAUAUGCUAGUGAUAACAGUAGUAGAAGGGACAUGAGGAUCACCCAUGUAGAUAGUGCAC [Brourd's EX4 #4] (Eterna round: R97, puzzle: Brourd's mod of Exclusion 4)”, the “apparent KD of MS2 coat protein” value turned out to be 32.6 nM (input ligand: FMN 200 uM) and 22.5 nM (input ligand: none).

As for “AAUAACAAGUUGAUCCUACACAUGAGGAUCACCCAUGUGCUCGUCUUGUCAAGUACUAUCACGAAAGUGUUAGUUCA [Mod-Hyphema] (Eterna round: R97, puzzle: Sensor, turn-off variant 1)”, the “apparent KD of MS2 coat protein” value by setting is: (input ligand: FMN 200 uM) 74.7 nM; (input ligand: none) 263 nM.

In the case of “UUUAUGUCAGGAUAUGAGGAGUAGAACAAUAGUACUACUCCUCAGAAGGGACAUGAGGAUCACCCAUGUUCCUC [Fiskers Ex 4 Super stable 44 mod 25] (puzzle: Exclusion 4)”, under setting [2], the “apparent KD of MS2 coat protein” value amounted to 18.5 nM.

Consider “UAUAUAUAGUAAGGAUAUGUAUUAGUUUUAUAAACAGAAGGUACUGACAUGAGGAUCACCCAUGUUUUAGUGUGGGCAUGUAGA [JMF's solution 74] (Eterna round: R96, puzzle: Exclusion NG 1)”, for which the “apparent KD of MS2 coat protein” value under setting [1] stood at 76.6 nM.

Consider “CACUUGGCAGGAUAUGCAAUUUUAGACAUGAGGAUCACCCAUGUGAUCAUUCCAUAUUAUGCAGAAGGGCCUAAAC [JR_E5_Sub050] (puzzle: Exclusion 5)”, for which, under setting [2], the “apparent KD of MS2 coat protein” value amounted to 214 nM.

Turning to “UAGAAUCGAGGAUAUACAUGAGGAUCACCCAUGUGUGGCCACACGGUGUGGUCGUCAGGUAGAAGGCGAUUACA [Exclusion 3 - Mod of Jieux's Gilly Gone Silly 23 v.3] (puzzle: Exclusion 3)”, the “apparent KD of MS2 coat protein” value under setting [3] came to 19.9 nM, the “apparent KD of MS2 coat protein” value under setting [2] was 22.8 nM and the “apparent KD of MS2 coat protein” value under setting [4] came out at 53.2 nM.

Regarding “AGUAGGAGAGGAUAUACGAAGUCAAAAGACUUCAAUACUCAACAUGAGGAUCACCCAUGUAGAAGGCUCCUACA [Omei Ex2 BD A4] (Eterna round: R97, puzzle: Exclusion 2)”, the “apparent KD of MS2 coat protein” value is, setting by setting: (input ligand: FMN 200 uM) 22.9 nM; (input ligand: none) 19.4 nM.

As to “CAUUAUUAUCGAGGAUAUCCUAUUGUAAUUCUGGGAGAAGGCGGACUCAACAUGAGGAUCACCCAUGUAAGACGGGUACUAGAU [Ex NG1 #21] (Eterna round: R96, puzzle: Exclusion NG 1)”, the “apparent KD of MS2 coat protein” value is, setting by setting: (input ligand: FMN 200 uM) 69.5 nM; under setting [1], 61 nM; (input ligand: none) 92 nM.

On to “AAUAAUCGGGCCUUCCUAAUACAUGAGGAUCACCCAUGUCUCGAGGAUAUACCAACGCACGGUCCGUAGAAGGCGAGACCACAC [Vesoonso] (Eterna round: R96, puzzle: Exclusion NG 3)”, for which the “apparent KD of MS2 coat protein” value reads like this: (input ligand: FMN 200 uM) 24.2 nM; under setting [1], 13.2 nM; (input ligand: none) 21.9 nM.

Consider “GGAAGACAUGAGGAUCACCCAUGUAAGGAUAUCGAAGGUAUGAGAGGAAAGAGGUUAACGAGAAGGUACAGGUG [JR_Exclu1_Sub099] (puzzle: Exclusion 1)”, for which the “apparent KD of MS2 coat protein” value under setting [3] was determined as 107 nM, the “apparent KD of MS2 coat protein” value under setting [2] was determined as 82 nM and the “apparent KD of MS2 coat protein” value under setting [4] is 102 nM.

On to “AACUAAACAUGAGGAUAUGCCUGGGAAGAACAGGCAGAAGGCGUGACAUGAGGAUCACCCAUGUAGCCGGGCUAUUCUCAUGCG [Cediceor] (Eterna round: R96, puzzle: Exclusion NG 1)”, for which the “apparent KD of MS2 coat protein” value amounted to 25.3 nM (input ligand: FMN 200 uM), 26.1 nM under setting [1] and 31.3 nM (input ligand: none).

For the sequence “AUAAGGUGAGGAUAUCCACGACCCUACAUGAGGAUCACCCAUGUAUACAGUACGUGUAGAGGAGAAGGUACAUGUC [Eternabot (L2) Solution 78] (Eterna round: R97, puzzle: Exclusion 5)”, the “apparent KD of MS2 coat protein” value runs as follows: (input ligand: FMN 200 uM) 28.3 nM; (input ligand: none) 29.3 nM.

Consider “GAUUAUGCGAGCUUUAGGGACAUGAGGAUCACCCAUGUUCGUCUUAUUGGUCUGGAUGCGCUAACAUACCUAAAUCU [JMF 46] (puzzle: Sensor v3, turn-off variant 1)”, for which the “apparent KD of MS2 coat protein” value amounted to 22.4 nM under setting [3], 31.7 nM under setting [2] and 22.6 nM under setting [4].

As to “GUUUCGAGACGGAGAUCCGACAUGAGGAUCACCCAUGUCUCGCAAGCUUUUUGCUCGUCUUAUACUCCUCUGUUCUC [Elimod 46 - Jieux - Sensor, turn-off variant 1] (Eterna round: R97, puzzle: Sensor, turn-off variant 1)”, the “apparent KD of MS2 coat protein” value reads like this: (input ligand: FMN 200 uM) 20.9 nM; (input ligand: none) 21.9 nM.

As to “GCUGGAGCAGGAUAUUCAAUAUCACACAUGAGGAUCACCCAUGUCCAGCGAAAGCUGGAGGGAGAAGGGCUCUAGC [Mat - Exclusion 5 - Eli mod - D98] (puzzle: Exclusion 5)”, the “apparent KD of MS2 coat protein” value came to 17.6 nM under setting [3], 60.4 nM under setting [2] and 76 nM under setting [4].
